Laboratory results as given in article PMC5117808 (Nature chemical biology, 2016).
No end group written: not given here.

B2: MdnB (ATP-grasp macrocyclase, microviridin J pathway, Microcystis aeruginosa MRC) (enzyme)
chain: MKESPKVVLLLTHSGDFFTIDRVAEAIEKKGATPFRLDTDKFPLEVQLTAQFNGKKSFYQLSYNHQSIDSEQVQSVWTRRIWQPELTGDLDPQFREVCVRESQTTLAGFWDSLRSARWLDNLAQIEKAKNKLLQLRLASEVGLIIPPTLVTNNPDAAREFFSQVQGRMVSKLLTAIARSMESPEFFLYTSRVKAEDLEEAESLRYCPMVFQAEIPKQLELRVVVVNGQTFVGALESSQYNNSAVDWRRPGIDPGAWQHHTLPDSLLQQLQIFMANLGLNFGAFDFILTPGGEYVFLEVNPGGEWGMLERDLDLPISQAIADFLVFG

Columns and labels:
[1] = biological target: T1, MdnC (Microcystis aeruginosa MRC, UniProt B2G3D0); type: binding; conditions: ITC
T1 sequence (B2G3D0 1-324): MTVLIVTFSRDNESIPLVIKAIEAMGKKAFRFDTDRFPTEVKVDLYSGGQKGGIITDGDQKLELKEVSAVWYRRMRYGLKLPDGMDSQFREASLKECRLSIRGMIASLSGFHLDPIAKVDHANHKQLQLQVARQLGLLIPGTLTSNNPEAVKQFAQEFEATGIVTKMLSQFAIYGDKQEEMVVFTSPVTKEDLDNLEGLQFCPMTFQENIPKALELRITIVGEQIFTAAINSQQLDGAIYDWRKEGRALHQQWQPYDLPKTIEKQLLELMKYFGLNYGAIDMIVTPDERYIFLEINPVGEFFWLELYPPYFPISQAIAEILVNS

[2] = biological target: T2, MdnB (Microcystis aeruginosa MRC, UniProt B2G3C9); assay: ITC binding of MdnA peptides to MdnB
T2 sequence (B2G3C9 1-326): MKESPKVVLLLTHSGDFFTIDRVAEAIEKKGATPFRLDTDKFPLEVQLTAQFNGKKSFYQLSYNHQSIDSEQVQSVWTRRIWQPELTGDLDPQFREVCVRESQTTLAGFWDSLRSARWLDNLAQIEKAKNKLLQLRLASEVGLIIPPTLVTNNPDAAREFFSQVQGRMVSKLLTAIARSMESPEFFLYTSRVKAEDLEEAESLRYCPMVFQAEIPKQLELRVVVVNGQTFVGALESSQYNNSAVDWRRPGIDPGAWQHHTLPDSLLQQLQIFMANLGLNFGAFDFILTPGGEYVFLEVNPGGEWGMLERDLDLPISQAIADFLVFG

[3] = biological target: MdnC (ATP-grasp macrocyclase, microviridin J pathway, Microcystis aeruginosa MRC) (Microcystis aeruginosa MRC); assay: SEC + native gel or EMSA
[4] = system: Daphnia; conditions: through inhibition of serine-type proteases; cited from earlier work
[5] = biological target: MdnC (ATP-grasp macrocyclase, microviridin J pathway, Microcystis aeruginosa MRC) (Microcystis aeruginosa MRC); assay: ITC
[6] = biological target: MdnC (Microcystis aeruginosa MRC); assay: crystal structure
[7] = biological target: MdnC (Microcystis aeruginosa MRC); assay: SEC
[8] = biological target: the molecule itself; assay: SEC + native gel or EMSA
[9] = biological target: B2; assay: ITC

## Nc1ncnc2c1ncn2[C@@H]1O[C@H](COP(=O)(O)OP(=O)(O)OP(=O)(O)O)[C@@H](O)[C@H]1O [ATP]
[1]
  Binding to MdnC, in words: neither MdnC nor MdnB show an observable heat change
[2]
  Binding to MdnB, in words: neither MdnC nor MdnB show an observable heat change

## MdnC (ATP-grasp macrocyclase, microviridin J pathway, Microcystis aeruginosa MRC) (enzyme)
[3]
  stoichiometry N: 2

## microviridin J
[4]
  Effect on Daphnia: lethal molting disruption

## Full-length MdnA (residues 1-49), microviridin J precursor peptide (from UniProt B2G3C8 1-49)
[5]
  Kd: 112 nM

## MdnC (enzyme)
[6]
  stoichiometry N: 2
[7]
  stoichiometry N: 2

B1: MdnA[9-22], minimal peptide containing the conserved region of the leader peptide (peptide)
peptide: GKALPFFARFLSVS
modifications: not fully specified
[5]
  Kd: 308 nM

## B2
[8]
  stoichiometry N: 2

B3: MdnA[1-35], leader peptide-only analog of MdnA (peptide)
peptide: MAYPNDQQGKALPFFARFLSVSKEESSIKSPSPDH
modifications: not fully specified
[5]
  Kd: 146 nM

B4: MdnA[1-35], leader peptide-only analog of MdnA (peptide)
peptide: MAYPNDQQGKALPFFARFLSVSKEESSIKSPSPDH
[9]
  Kd: 2800 ± 800 nM

B5: Full-length MdnA (residues 1-49), microviridin J precursor peptide (peptide)
peptide: MAYPNDQQGKALPFFARFLSVSKEESSIKSPSPDHEISTRKYPSDWEEW
[9]
  Kd: 4800 ± 1000 nM

B6: MdnAΔ2, dicyclic intermediate of MdnA (peptide)
peptide: MAYPNDQQGKALPFFARFLSVSKEESSIKSPSPDHEISTRKYPSDWEEW
modifications: two macrolactone rings, Thr39/Asp45 and Ser43/Glu47 (installed by MdnC)
[9]
  Kd: 6400 ± 2000 nM
